Values quoted from earlier work, collected in article PMC10578080.

Biological target: neuronal ternary SNARE complex (Rattus norvegicus) (UniProt P32851)
UniProt P32851, sequence (P32851 whole entry, chain 1 of 3): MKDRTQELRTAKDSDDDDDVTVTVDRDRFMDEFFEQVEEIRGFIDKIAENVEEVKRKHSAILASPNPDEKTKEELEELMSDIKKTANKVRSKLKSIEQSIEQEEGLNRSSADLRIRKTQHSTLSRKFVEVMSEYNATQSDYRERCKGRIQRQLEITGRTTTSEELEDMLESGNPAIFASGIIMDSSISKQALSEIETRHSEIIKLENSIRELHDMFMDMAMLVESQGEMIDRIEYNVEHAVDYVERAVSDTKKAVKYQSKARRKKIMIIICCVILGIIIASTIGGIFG
UniProt P32851, sequence (B2RAU4 whole entry, chain 2 of 3, further chain): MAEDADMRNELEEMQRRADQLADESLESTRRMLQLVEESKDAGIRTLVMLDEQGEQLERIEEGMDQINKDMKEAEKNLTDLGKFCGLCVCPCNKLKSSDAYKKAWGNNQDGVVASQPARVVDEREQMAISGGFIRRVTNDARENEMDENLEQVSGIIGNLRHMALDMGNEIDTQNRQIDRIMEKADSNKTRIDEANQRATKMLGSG
UniProt P32851, sequence (P63044 2-116, chain 3 of 3, further chain): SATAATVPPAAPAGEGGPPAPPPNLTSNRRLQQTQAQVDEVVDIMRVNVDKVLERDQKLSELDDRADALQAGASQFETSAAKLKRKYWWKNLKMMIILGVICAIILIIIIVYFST

- Kd: 10 nM
Substance: Cpx1 central domain (from UniProt P63041)
